According to PMC12406269, “Identification and characterization of nanobodies specific for the human ubiquitin–like ISG15 protein” (The Journal of Biological Chemistry, 2025):

Biological target: T1, human ISG15 (1-157)-SBP-His (human, UniProt P05161 1-157)
T1 construct: human ISG15, residues 1-157, cloned into pET30b; also called hISG15-SBP-His; human ISG15-SBP; source: E. coli BL21 (DE3), purified (Ni-NTA, SEC); not shown: His, C-terminal, kept
Assay: SEC; VHH and ISG15 mixed at the indicated molar ratios (1:2, 1:1 or 1:1:1) at 20 μM in 500 μl TBS, 20 min at room temperature; Superdex 75 10/300, fractions on SDS-PAGE
Details: both partners purified

T1 sequence (P05161 1-157): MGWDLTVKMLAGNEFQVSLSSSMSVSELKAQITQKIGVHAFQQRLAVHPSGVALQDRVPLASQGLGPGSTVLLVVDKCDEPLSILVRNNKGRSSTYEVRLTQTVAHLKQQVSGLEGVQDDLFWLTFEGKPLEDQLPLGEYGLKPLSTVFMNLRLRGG

B1: VHH_(ISG15-A)-HA-His (VHH)
VHH: QLQLVETGGGLVQAGGSLRLSCAASGRTFAGLSVKWFRQPPGAEREWVAHITSTGSSTHYADSVKGRFTISRDYDRNMVYLQMSSLKPEDTAVYYCHASTLWPEKHQDYWGQGIQVTVSS
notes: VHH domain; also called VHH-A; source: E. coli WK6, periplasm (osmotic shock), purified (Ni-NTA, SEC); not shown: LPETGG sortase motif, C-terminal, kept; HA, C-terminal, kept; His6, C-terminal, kept
  binding result: binds
